What all share (settings): chain copies: 2; label: biotin
Data set [1] has as its target T1, IgG4 (plasma IgG sub-class) (Homo sapiens, UniProt P01861-1 P01861-1:1-327). Put plainly: SPR; pH 5.5; resistant to 2 M NaCl. The procedure: (§1) Plasma IgG's sub-classes were injected at pH 5.5 (in duplicates), whereby a complex was formed as evidenced by the increase of the signal. […] The solid support was then regenerated by injection of a solution of NaOH at 50 mM. X-axis: time in s. Y-axis: SPR response in arbitrary scale.
(§2) The selected aptamer was synthetized with Biotin and a triethylene glycol spacer at the 5′ end of the oligonucleotide. A 1 μM solution of the aptamer was prepared using the SELEX selection buffer. The aptamer solution was heated to 90° C. for 5 min, incubated on ice for 5 min and equilibrated to room temperature for 10 min. The preparation was injected on a streptavidin coated sensor chip SA of Biacore T200 instrument (GE Healthcare) at a flow rate of 10 μl/min for 7 min. Then, different concentrations of the target (Human polyclonal IgG, purified from human plasma with a purity of >95%) were injected to the immobilised aptamer at 30 μl/min for 1 minute. After dissociation for 1-2 min a wash step was performed by injecting a suitable wash buffer at 30 μl/min for 1 min. For elution, a suitable elution buffer was injected at 30 μl/min for 1-2 min Finally the sensor chip was regenerated by injection of 50 mM NaOH at 30 μl/min for 30 sec. During the course of the experiment the response signal was recorded in a sensorgram.
(In general: In SPR one partner is held on a chip, and binding of the other changes the refractive index at the surface.)

For data set [2], the target named is T1, IgG4 (plasma IgG sub-class). Put plainly: SPR; pH 5.5; resistant to 2 M NaCl. This is another data set of the same source.
For data set [3] the target is unchanged. In words: SPR; pH 5.5; faster association, partly eluted by 2 M NaCl. The procedure:
as §1, §2

T1 sequence (P01861 other isoform, or with tags, fused parts or gaps): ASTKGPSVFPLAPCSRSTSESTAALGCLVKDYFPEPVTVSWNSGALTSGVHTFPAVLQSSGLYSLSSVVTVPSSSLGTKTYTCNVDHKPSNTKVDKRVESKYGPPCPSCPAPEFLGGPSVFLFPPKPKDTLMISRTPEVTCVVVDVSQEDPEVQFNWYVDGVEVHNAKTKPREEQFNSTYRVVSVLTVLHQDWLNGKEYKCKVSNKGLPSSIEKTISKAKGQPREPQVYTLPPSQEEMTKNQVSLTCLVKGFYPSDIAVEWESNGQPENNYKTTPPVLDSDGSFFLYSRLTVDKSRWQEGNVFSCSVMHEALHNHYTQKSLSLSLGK

B1: A6-8 (ssDNA)
DNA: GGGTCAATGCCAGGTCTCCACGGTATAGTCTCGCCCAGTGCCCTTTGTTGGACTTCCTATCGGCTCGCAAGCAGTC
modifications: 5' biotin-triethylene glycol spacer
For B1, the binding result in data set [1] is listed as “binds”.

B2: A6-4 (ssDNA)
DNA: GGGTCAATGCCAGGTCTCAAGTTTGTGGGGCTGGGGTTCGGTCCTGGCACAAATTCGTATCGGCTCGCAAGCAGTC
modifications: 5' biotin-triethylene glycol spacer
With B2, in data set [2], the binding result is on record as “binds”.

B3: A6-2 (ssDNA)
DNA: GGGTCAATGCCAGGTCTCCCCAGCCTCATCTCACGGCATAGTCTCGCCACACTGGAAATCGGCTCGCAAGCAGTC
modifications: 5' biotin-triethylene glycol spacer (SPR); 5' amino-C6 spacer and 3' idT (chromatography)
For the molecule B3, in data set [2], the binding result is “binds”.

B4: A6-3 (ssDNA)
DNA: GGGTCAATGCCAGGTCTCGACTATTCCTCCGGCCTCTTCCCTAATCAGTGGCATCTCTATCGGCTCGCAAGCAGTC
modifications: 5' biotin-triethylene glycol spacer
As to B4, in data set [3], the binding result is “binds”.
